US20240026407A1, “MODIFICATION OF SAPONINS” (GLAXOSMITHKLINE BIOLOGICALS SA, priority 2020, published 2024)

B1: 1069 (protein, listed as Deltaproteobacteria bacterium)
chain: MSLHDRSWVWNPDWNESRKETSAGGFVHFRREIDLEKRPSRPIFISITADTRYKLYINSKFVHHGPVKGDSQVWYYDELDIQPYMKAGKNTIAVRVLRLYHGTRFGTSFPRMPLGGLRIQHIRDSNDPPIIFSIETNGSWKTAVDRSSFLPIIEDDMFLHIFEAVDRRNDCKLQWTSAKPHKIFNAFGLVSPWKLSPRQIPFANFRPAIFSTIHNIRSTSNDAEVVDWQACLLAKSSNRTPVRLAAGTIHHVELEASHHLTAFMSFLFERPENPGAEIKITYSECYEDVPDNPQFRQKADRRDTSKKLLGPYDTFILGGRIYEQEDPSSAYHESGEDMVIFAPFHFRTFRFIAIDIAVNSDSDLIFHGVQITRTKYPLDVLAQFSPGGRDVTLPVQKMWETSILTLENCMHDCYEDCPFYEQLQYAMDTRSSALFTYYLSGDDRLARQAITQTRNSFQPSIGLTASRAPCEHLQIIPNFSLFWICMVADHYLHYGDMAFTSQFLPVCDAVLDSFRRRIDPDLGLVRCYDTDDFWDFVDWTEAWKPRGIPPAGKRTGYQTFSSSLYAYTLNLIAPAVEEYGRKGVAEEYRQSAAEVAASIWQHCFDGQYFTDGLAGSALNSEYSQHNQVWAILSGAVIGDEARQLLSKTLSRHDLTTPSIAMSFYTLQAVSLVGGDLYDLHFNDFWAPWIEQLSNNVTTWVEDNVSQRSECHAWGSAPIYEFMAEVVGLRPLEPGWRSISFKPRLALFETMDSKVPIPIRGSSGMAVAHVRWGRKGDDIAGVTIELKKGAENLRIPITLSHESGEDEVVISPFARDVRIQ
B2: 1080 (protein, listed as Eisenbergiella massiliensis)
chain: MANWIWYPGDFEIYHGMCQNFDREERGFFWPAYWHIADCRHHVVFHASCRLEKETAFRVTAKGIGHVLVKWEEKAPSWFPEGQPFYQEKKYTIGEWISCPAKEIGIDVVIGNRTGLPCIYVEGEVIRSGKNWTVTDFAAPEVPVGWNDMYVRAQQDPQIFEYTQELCRPVSTERVNGGVLYDFGRELTADTLIKINGEERPDQVTLCYGESRTEALDTQLCYLKQVLEIPGKKDSVPAGCASGPEREADCGASPFGRWESGQRYHTKLRAFRYIFVPEGENASLVTVEALYKYVDFPKRSSFSCSDGLINRIWEVADTTFRLASGIFFLDGVKRDRWIWSGDAYQSYFINQYLFFDKDICKRTILALRGNDPVTEHINTIVDYSMYWIISLENYYNMSGDLDFIRMVYPRMESLLRYCMEQTDGQGFIYGREGDWIYIDWAELDKEGILCAEQQLLARSYEAVASVRRLLGLDAEEFDVRKEALLKNIRQFFWDEEKGAFIDSYQSGRRNVTRHANIFAVLFGYADEAETESILHKVLLNEEVAAITTPYFKFYELEALAKLGRFEVVMDTLKSYWGGMLERGADTFWEEYKPEQPEEEQYGMYGDKYGKSLCHAWGASPIYLLGRYCMGVRPTGTAYETFAVEPQLELFDSFSCSFPVNEGTVWMDWKDGVLDVYTDKDGGVLKAAGKEYTLERGKHVVVKGR
B3: 1036 (protein, listed as Bacteroides cellulosilyticus)
chain: MNRYILFFFLILSTLTTLRAQQSRLVEVGNGYSQTSVNTTVFRNNSLVTQGDEQYISYYDGDGYLVLGKRKLDSDQWTLKRTQYKGNVKDAHNIISMMLDGEGYLHLSFDHHGHKLNYCRSTAPYTLELGDKEPMTGVDEGNVTYPEFYPLNGGDLLFVYRSGSSGRGNLVMNHYSVKEKKWNRVQDVLIDGEDQRNAYWQLYVDEQGTIHLSWVWRETWHVETNHDLCYARSYDNGVTWYKANGKKYDLPIRYNNAEYACRIPQNSELINQTSMSADASGNPYIATYWRDPDSEVPQYRIVWHDGQMWHNRQVSNRHTPFSLKGGGTKMIPIARPRIVVDGGEIFYIFRDEERGSRVSLAHAAAVGVGKWTFTDLTNFPVDAWEPSHDTELWKQKRRLHLFVQHTKQGDGERRVEFAPQPVYVLEVVKPKGD
B4: 1010 (protein, listed as Paenibacillus mucilaginosus)
chain: MEENRLWNARWIWHQSYPWTSDPGTHEMVWFRREFDVTDPHLAQLVVDISADSRYRLFLNGDSVSVGPCKGDRSTHYYETVDLSERLIAGTNVLAAQVLHFAPSGPHLLGVSGPLSIHRAVSGAMFLEGVLIEGNGHSQTLHSDEKWLCKKMPGFKLVPSPIIFFLGGFEDTDGSGLDHGWELPGYDDEGWTNAVIVCETGDKFGQLTPWQLAPRPIPPMREEPASFRGITKADDRAAIPGYEAMLRGGDTRSVRVEAGQSIWLELDAGELVTGYVTLKLRGGRESRIKLLYAESYEEPASNLHHRVKGIRDDAENGILLGEADHYTVAGVGIGESVERYEPFDFRTFRYLRLEAAAKDEPLEIVLLSYRDTGYPLNAQAAFSCSDPDYAALWELSLKTLRRCMHETYEDCPYYEQLQYTMDTRLQMMFTYAVSADDRLARRALFDYHSSALPSGMLQSRYPSEYRQVIPSFSLYWIHMLYEHYWHFGDRELIRRYVPTMTGVLGWFRRMLTPEGLVAPTPRAYWPYFDWCIDWENGTPPAHAKGPLTLLSQMLAAALQTASQIYEAVGWSDAAREAKADANAVNEALLRLCWRPERGLFADGPEVEEFSQHAQVWGVVCGAVQGEDAVRLLERTIEPQAEHMAQLSVPASYELFRMLSRHGLYGKASNVIDRWKAFLHLHLTTLPEVTDDNHPRSDCHAWSALPLSEFTGEILGVRPGAPGYSEIIVSPQPLQLSWAKGSAATRHGSVEVEWTLDEEAVFRMSGNGPVGIPLLVVLPNGKQVEFRHGGKFEASAKLRA
B5: 1034 (protein, listed as Paenibacillus mucilaginosus)
chain: MSSTQTLRGRFDDPPAEYRAAPFWAWNDALREEEVLRQIGEMKEGGMGGFFIHSRDGLETEYMGTEWMKLVRAAVEEAEAQGMQAWLYDEDRWPSGFAGGLVQARGGDDYRAKGLTLEVVPAEKEGSGRLAERLADGAPVALFRAVIAERSLLSCTRLDLQVMFGSRMEAAAAAENTLLPPILEPQQEQHQDHETVYLLFRVEVSERSEWFNGEAPPDNLNPDTVRTFIELTYEAYEREVGGSFGSAVRGVFTDEPSIHDRHCRFTPGRAWLPWSGSFPAFYRERRGSDVLDTAPYLFFDGSLSPQARHDYWRTVTERFSEAYSGQIGEWCGSRGLAFTGHYLWENNLGTATRVCGAVMPNYRYQHVPGIDMLGEQTNETITVKQCTSVAHQYGRKVVLSETYGCTGWGFTFEGQRWVGDFQYVLGVNLRSQHLALYSIKGCRKRDYPPVFHYNTSWWKFSRVIEDYYARLSAVLTEGRPIRDVLVLHPSTTAWSMVGTGPYGFPARGKDRDVSAANRYGHEFNAFLRGLLGAHYDFDLGDEIILSEIGSVRQTEQTARLAVGMAEYRTVVLPEIRTMLRSTFLLLTGFLEAGGRVVAVGPPAELLEGRPAPELSRLYGHPGLTVVPDGAAAAAALESFLPRRVSIRHQAPQHTEPAEADKMLYMLQKADNRRVLFIVNNDREEEQQVTITLEGEGLLEEWNALTGEVTDVLVRRSQEGLLEFDASFGPADSKLYVLHTDRAPETGLNASPASEAPLLLVDPGTIRMELLQEPAGFTRTAPNALTLDRCSYRLRDGDWSGEMDVWQAQRAVREALGMRQVYGNGLEQRYRWVHEPHPGDGTPAAFRFDFEVTDVPEGEIHLVVESAGEYELGLNGNPVPGVPDGWFLDRSFDRVPLSGLRAGRNELVLSCRYHQRMEVEDLYLTGDFGVDEGRRITREPEKLQLGDWCLQGYPHYAGSMVYRFTVDGGLTPGGPAWLELGSFQAVTAEVRINRETAGHVPWRAANRLDISGRLRQGENLIEVEVMGSPRNLLGPFHHTSGDPSITSWSSFRKEGGDYSPAYRLRPYGLFGGIRLYRVQEQGGKGG
B6: 1035 (protein, listed as Caulobacter segnis)
chain: MVKAYRPSLVLVLALAFGPAASAEPIWITHPAAPSAPTVVRFERDLTLARKPGHFPVRVSADNRFILLVNGRRVGAGPATSDLGHWRYATLDLAPYLTRGSNHLEAVVWNYVKPEEPIPDGLSPAQKNAAAFRNQRNQTGPVAQISARLGFWFSAPGAPELDSGPTWRVQLDSARSAAPVMGQVAGFYAAGPSEIVDARVPLAAPVAATPALAPGEPSPWALSADPLPQMSYRAVDPGLVARTNLDEAKAFPRQPVTIPARKTVKILLARPAMVAAYPTLRVTGGKDASIKLTYAEALIDAKGRKGLRSEVGDRTIRGLSDRFTADGGARAFAPLWWRTWRYLEIEVQTADQPLRLQGLDVAETDYPFGQVGKFVSDDPELNRIWDIGWRTARIDAHETYMDTAYYEQLQYVGDTRLQALISYAVSGDPRLATQAMDAFGASRALGGVTEGAYPSRTSNPIPPFSLLWIGMLHDYWSRHPDPEPARRHLARAREVLAWFDGYLGPDGLMRKTPGWSFVDWAVKDGRLLSRDAFPSYDAQGRSCLLSLAYLGALRDMTDLEAALGEPSLAGRDRSRAEAIAAAVRDQCWAPDRGLFADTPDKASFSQHTNALAVLYDVAAPKDAAAILDRTVGQAGIDAPTGMISTSYYYAWYLVRAFDHAGQADRYLSLLDTWRGLLALDYTTWPEERGNTRSDTHAWSAHPTADLLELVAGIRPDAPGYGRLRVEPHLGALRRLDAAAATPQGPVEVKYRRKGQRLVVEVRKPAGLSGVFVWRGQSHALLGARTRLDLPAGD

assay: Experiment 6-1: specificity of rhamnosidases towards other rhamnose residues (C3 saccharide rhamnose, C28 saccharide rhamnose); type: biochemical, Quillaja saponaria; settings: TBE 2%, pH 7.5, 30 degC, 18 h; LCMS/MS; negative controls 0.18, 0.17

**Q.** For B1, which “ratio PP/QS-21” value is on record?
**A.** 0.17

**Q.** Which “ratio PP/QS-21” value does the source give for B2 here?
**A.** 0.17

**Q.** For B3, which “ratio PP/QS-21” value is on record?
**A.** 0.16

**Q.** Which “ratio PP/QS-21” value does the source give for B4 here?
**A.** 0.18

**Q.** Which “ratio PP/QS-21” value does the source give for B5 here?
**A.** 0.17

**Q.** Which “ratio PP/QS-21” value does the source give for B6 here?
**A.** 0.17

assay: Experiment 6-1: screening of rhamnosidases for derhamnosylation of saponins in treated bark extract (2%), desglucosyl-QS-17 2134 to QS-21 1988 (PAR %); type: biochemical, Quillaja saponaria; settings: TBE 2%, pH 7.5, 30 degC, 18 h; TIC peak area ratio percent, LCMS/MS; negative controls 2.719, 2.158

**Q.** For B1, which “Peak75 (PAR %)” value is on record?
**A.** 2.213%

**Q.** Which “Peak75 (PAR %)” value does the source give for B2 here?
**A.** 2.434%

**Q.** Which “Peak75 (PAR %)” value does the source give for B3 here?
**A.** 2.444%

**Q.** Which “Peak75 (PAR %)” value does the source give for B4 here?
**A.** 2.559%

**Q.** For B5, which “Peak75 (PAR %)” value is on record?
**A.** 2.389%

**Q.** Which “Peak75 (PAR %)” value does the source give for B6 here?
**A.** 2.427%

assay: Experiment 6-1: screening of rhamnosidases for derhamnosylation of saponins in treated bark extract (2%), QS-17 2296 to QS-18 2150 (PAR %); type: biochemical, Quillaja saponaria; settings: TBE 2%, pH 7.5, 30 degC, 18 h; TIC peak area ratio percent of rhamnosylated starting saponin to derhamnosylated product, LCMS/MS; negative controls 4.876, 5.225

**Q.** With B1 as the molecule, how does the “QS-17 (PAR %)” value read?
**A.** 4.786%

**Q.** For B2, which “QS-17 (PAR %)” value is on record?
**A.** 4.792%

**Q.** For B3, which “QS-17 (PAR %)” value is on record?
**A.** 4.834%

**Q.** With B4 as the molecule, how does the “QS-17 (PAR %)” value read?
**A.** 4.796%

**Q.** For B5, which “QS-17 (PAR %)” value is on record?
**A.** 4.827%

**Q.** For B6, which “QS-17 (PAR %)” value is on record?
**A.** 4.825%

assay: Experiment 6-1: screening of rhamnosidases for derhamnosylation of saponins in treated bark extract (2%), QS-17 2310 to QS-18 2164 (PAR %); type: biochemical, Quillaja saponaria; settings: TBE 2%, pH 7.5, 30 degC, 18 h; TIC peak area ratio percent, LCMS/MS; negative controls 3.061, 2.429

**Q.** For B1, which “Peak57 (PAR %)” value is on record?
**A.** 2.596%

**Q.** For B2, which “Peak57 (PAR %)” value is on record?
**A.** 2.882%

**Q.** With B3 as the molecule, how does the “Peak57 (PAR %)” value read?
**A.** 2.852%

**Q.** Which “Peak57 (PAR %)” value does the source give for B4 here?
**A.** 2.845%

**Q.** With B5 as the molecule, how does the “Peak57 (PAR %)” value read?
**A.** 3.034%

**Q.** With B6 as the molecule, how does the “Peak57 (PAR %)” value read?
**A.** 2.987%
